Laboratory results: paper PMC8750214

Key:
[1] = immunoblot of total 4-1BB, Jurkat; conditions: glycan lost; control: wild type
[2] = flow cytometry of surface 4-1BB, Jurkat; conditions: glycan lost; control: wild type

Row | Substance | expression_or_secretion [1] | localisation_or_trafficking [2]
1 | 4-1BB (CD137/TNFRSF9): N138Q | no change | decreases
2 | 4-1BB (CD137/TNFRSF9): N149Q | – | no change
